According to patent US7556938B1, “Nucleic acids encoding potassium channel interactors” (Millennium Pharmaceuticals, Inc., priority 1998, dated 2009):

Legend:
rKv4.3 = assay: Two-electrode voltage clamp of Kv4.3 currents in Xenopus oocytes co-injected with KChIP cRNA; type: cell-based, rat
Method: (§1) Frogs underwent no more than two surgeries and surgeries were performed by well established techniques. Frogs were anesthetized with ice. Total cRNA (1-10 ng) was injected into stage IV Xenopus oocytes that were harvested the previous day. The Xenopus oocytes were incubated in ND96 containing (in mM) 96 NaCl, 2 KCl, 1.8 CaCl2, 1 MgCl2, 5 HEPES, pH 7.6, plus (Gentamycin 50 μg/ml) at 18° C. Xenopus oocytes were studied 3-7 days after injection. The two-electrode voltage-clamp recordings were performed in ND96 solution using a TURBO TEC 03 Clamp Amplifier (ALA Scientific Instruments, Westbury, N.Y.). Both electrodes were filled with 3 M KCl and had electrode resistances ranging from 0.2-1 MOhm. The current signals were filtered at 1000 Hz before transferred on a PC (Gateway, Calif.) using the PULSE software (HEKA, Germany).
(§2) To investigate whether the modulatory effects of these KChIPs are specific for Kv4 channels, KChIP1 was coexpressed with Kv1.4 and Kv2.1 in Xenopus oocytes. Xenopus oocytes were injected with 1-3 ng/oocyte of cRNA which was prepared using standard in vitro transcription techniques (Sambrook et al. 1989. Molecular Cloning: a laboratory manual, Cold Spring Harbor Press). Currents in Xenopus oocytes were measured with a two-electrode voltage clamp. […] As a final control for the KChIP effects and to verify that the KChIPs' effects on Kv4 currents are independent of expression system, the above kinetic analyses were repeated after expressing Kv4.3 and KChIP mRNAs in Xenopus oocytes. The effects KChIP1 on for Kv4.3 in the Xenopus oocyte system were strikingly similar to those on Kv4.2 in CHO cells (Table 1).

rKv4.2 = target: T1, rKv4.2 (Rattus norvegicus, UniProt Q63881); assay: Patch-clamp of Kv4.2 currents in CHO cells coexpressing KChIPs; type: cell-based
T1 construct: expressed in transfected cells; host or cells: CHO cells, transient transfection with GFP co-transfected
T1 sequence (Q63881 1-630): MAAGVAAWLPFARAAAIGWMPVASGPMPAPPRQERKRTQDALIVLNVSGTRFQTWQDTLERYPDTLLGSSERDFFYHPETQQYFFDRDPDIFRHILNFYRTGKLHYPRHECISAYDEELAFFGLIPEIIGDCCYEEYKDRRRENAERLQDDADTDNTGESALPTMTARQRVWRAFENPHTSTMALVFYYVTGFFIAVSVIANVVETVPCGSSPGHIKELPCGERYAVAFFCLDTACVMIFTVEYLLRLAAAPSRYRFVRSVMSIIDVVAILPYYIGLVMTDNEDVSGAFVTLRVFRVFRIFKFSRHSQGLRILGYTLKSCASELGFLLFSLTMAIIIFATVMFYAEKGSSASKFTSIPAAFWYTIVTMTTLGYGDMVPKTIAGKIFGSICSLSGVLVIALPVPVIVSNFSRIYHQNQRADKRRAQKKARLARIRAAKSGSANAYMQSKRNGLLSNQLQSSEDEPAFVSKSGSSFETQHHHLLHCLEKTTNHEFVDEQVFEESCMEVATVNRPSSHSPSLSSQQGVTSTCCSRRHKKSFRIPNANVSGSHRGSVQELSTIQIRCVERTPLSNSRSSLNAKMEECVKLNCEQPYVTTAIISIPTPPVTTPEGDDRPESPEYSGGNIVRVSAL
Method: HEK 293 and CHO cells were used for recordings 1-3 days after a transient transfection. Whole-cell currents were recorded from cells expressing GFP, identified by their green fluorescence. […] After Gigaseal and ruptured whole-cell configuration access, resistance was less than 10 MOhms. Whole-cell bath solutions were made from a 10× Hank's balanced salt solution (GibcoBRL) with the following final concentration (in mM): 138 NaCl, 5.4 KCl, 1.3 MgCl2, 1.3 CaCl2, 5.5 D-Glukos and 10 HEPES, pH 7.4. The intracellular electrode solution consisted of (in mM) 140 KCl, 10 HEPES, 10 EGTA, 0.5 MgCl2, pH 7.3. All chemicals were from Sigma (St. Louis, Mo.) or Fisher Scientific (Houston, Tex.). Membrane currents were recorded using a EPC9 patch-clamp amplifier (HEKA, Germany). Data were analyzed using Matlab (Natick, Ma), and leak subtracted if necessary. All experiments were done at room temperature.
Because PCIPs, e.g., KChIP1 (1v), KChIP2 (9ql), and KChIP3 (p19), colocalize and coassociate with Kv4 α-subunits in brain, another critical question was to determine whether these PCIPs alter the conductance properties of Kv4 channels. To address this issue, Kv4.2 and Kv4.3 were expressed alone and in combination with individual PCIPs. CHO cells were transiently-transfected with cDNA using the DOTAP lipofection method as described by the manufacturer (Boehringer Mannheim, Inc.). Transfected cells were identified by cotransfecting enhanced GFP along with the genes of interest and subsequently determining if the cells contained green GFP fluorescence. Currents in CHO cells were measured using the patch-clamp technique (Hamill et al. 1981. Pfluegers Arch. 391: 85-100).
First, the amplitude of the Kv4.2 current increased approximately 7.5 fold in the presence of KChIP1 (amplitude of Kv4.2 alone=0.60+/−0.096 nA/cell; Kv4.2+KChIP1=4.5+/−0.55 nA/cell). […] Finally, the kinetics of Kv4.2 inactivation slowed considerably when Kv4.2 was coexpressed with KChIP1 (inactivation time constant of Kv4.2 alone=28.2+/−2.6 ms; Kv4.2+KChIP1=104.1+/−10.4 ms), while channels recovered from inactivation much more rapidly in cells expressing both Kv4.2 and KChIP1 (recovery tau=53.6+/−7.6 ms) versus cells expressing Kv4.2 alone (recovery tau=272.2+/−26.1 ms).

hKv1.4 = hKv1.4 (Homo sapiens, UniProt P22459); assay: Two-electrode voltage clamp of Kv1.4 currents in Xenopus oocytes coexpressing 1v; type: cell-based
Method: as §1, §2

[1] = Kv4.3 co-expressed with the KChIP
[2] = rKv4.2 coexpressed with the KChIP, at 50 mV

Chain of hKv1.4 (P22459 whole entry): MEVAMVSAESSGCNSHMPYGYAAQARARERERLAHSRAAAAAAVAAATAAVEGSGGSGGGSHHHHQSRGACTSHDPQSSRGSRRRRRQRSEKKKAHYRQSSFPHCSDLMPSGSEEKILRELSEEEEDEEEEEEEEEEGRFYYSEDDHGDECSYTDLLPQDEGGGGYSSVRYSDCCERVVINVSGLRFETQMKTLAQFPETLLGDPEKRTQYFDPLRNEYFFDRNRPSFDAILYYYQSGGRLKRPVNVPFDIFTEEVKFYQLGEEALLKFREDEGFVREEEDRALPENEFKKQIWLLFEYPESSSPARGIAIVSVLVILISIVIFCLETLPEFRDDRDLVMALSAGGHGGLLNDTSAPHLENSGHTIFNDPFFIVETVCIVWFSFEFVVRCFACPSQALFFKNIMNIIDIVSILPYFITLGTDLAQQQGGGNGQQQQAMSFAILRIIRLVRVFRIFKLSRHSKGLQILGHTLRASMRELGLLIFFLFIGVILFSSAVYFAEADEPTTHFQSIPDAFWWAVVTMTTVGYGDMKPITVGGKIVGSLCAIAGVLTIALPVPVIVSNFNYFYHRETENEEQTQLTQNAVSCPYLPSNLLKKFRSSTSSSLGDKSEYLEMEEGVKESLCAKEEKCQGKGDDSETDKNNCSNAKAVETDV
Chain of rKv4.3 (Q62897 1-487 limits assumed): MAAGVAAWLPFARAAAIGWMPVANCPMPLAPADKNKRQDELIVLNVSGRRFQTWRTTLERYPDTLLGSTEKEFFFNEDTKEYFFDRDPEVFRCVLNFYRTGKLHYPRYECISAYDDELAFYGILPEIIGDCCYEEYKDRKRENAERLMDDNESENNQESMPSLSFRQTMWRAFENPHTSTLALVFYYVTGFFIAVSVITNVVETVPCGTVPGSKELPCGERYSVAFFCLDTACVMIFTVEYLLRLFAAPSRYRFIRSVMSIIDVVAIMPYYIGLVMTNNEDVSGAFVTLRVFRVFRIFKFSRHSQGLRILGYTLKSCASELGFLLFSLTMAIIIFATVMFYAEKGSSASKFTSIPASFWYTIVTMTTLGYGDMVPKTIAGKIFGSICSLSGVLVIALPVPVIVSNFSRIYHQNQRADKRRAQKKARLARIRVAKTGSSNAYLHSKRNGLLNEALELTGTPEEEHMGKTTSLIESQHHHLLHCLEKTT

activation V1/2 (rKv4.2; Kv4.2 coexpressed with KChIP1): −12.1+/−1.4 mV | Inactivation time constant (ms, at 50 mV) (rKv4.2; [2]): 104.1 ± 10.4 ms | Peak Current (nA/cell at 50 MV) (rKv4.2; [2]): 4.5+/−0.55 nA/cell | Peak Current Density (pA/pF at 50 mV) (rKv4.2; [2]): 306.9+/−57.9 pA/pF | fold increase of Kv4.2 current amplitude (rKv4.2; versus Kv4.2 alone): approximately 7.5 fold | fold increase of Kv4.2 current density (rKv4.2; versus Kv4.2 alone): 12 fold | effect on Kv1.4 currents (hKv1.4): did not appear to have any effect | Activation V1/2 (mV) (hKv1.4; hKv1.4 + 1v): −20.9 mV | Steady-state Inactivation V1/2 (mV) (hKv1.4; hKv1.4 + 1v): −47.5 mV | Inactivation time constant (ms, at 50 mV) (hKv1.4; hKv1.4 + 1v, at 50 mV): 58.2 ± 6.6 ms | Peak Current (μA/cell at 50 MV) (hKv1.4; hKv1.4 + 1v, at 50 mV): 6.5 ± 0.64 μA/cell
B1: KChIP1: Potassium channel interacting protein 1v, a Ca2+-binding protein that binds and modulates Kv4 channels (protein)
chain: MPARVLLAYPGTEMLTQGESEGLQTLGIVVVLCSSLKLLHYLGLIDLSDDKIEDDLEMTMVCHRPEGLEQLEAQTNFTKRELQVLYRGFKNECPSGVVNEETFKQIYAQFFPHGDASTYAHYLFNAFDTTQTGSVKFEDFVTALSILLRGTVHEKLRWTFNLYDINKDGYINKEEMMDIVKAIYDMMGKYTYPVLKEDTPRQHVDVFFQKMDKNKDGIVTLDEFLESCQEDDNIMRSLQLFQNVM
Inactivation time constant (ms ± SEM) (rKv4.3; [1]): 112 ± 3 ms | Peak amplitude (μA ± SEM) (rKv4.3; [1]): 59 ± 5 μA | Inactivation time constant (ms, at 50 mV) (rKv4.3; rKv4.3 + KChIP1, at 50 mV): 135.0 ± 15.1 ms | Peak Current (rKv4.3; rKv4.3 + KChIP1, at 50 mV, unit μA printed in cell): 18.1 μA* ± 3.8 | fold increase of inactivation time constant of Kv4.3 (rKv4.3; versus Kv4.3 alone): ~2 fold
